Results on 139 substances are retold here after the supplement of paper PMC12042874.

± gives the uncertainty stated by the source.

This data set can be described thus: amyloid nucleation score (Sup35N fusion, yeast selection) (log enrichment); library NNK1; higher = more nucleation; inactive = no reads after selection. A digest of the protocol:
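Nucleation score: DiMSum log enrichment of output over input reads, centred on the mode score of non-aggregating sequences. Only sequences with at least 100 input reads were kept. Reads came from Illumina sequencing of plasmid inserts before and after 7 days of growth at 30°C without adenine and uracil, in psi-negative yeast expressing Sup35N fused to peptides of 20 random codons after 24 hours of induction with 100 μM copper sulfate.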
FISAACEEPVTFMGNYGGYG came in with an amyloid nucleation score of 0.02 ± 0.53.

As to QFSCFMMFIIYE, the amyloid nucleation score is 4.16 ± 0.064.

Consider LMAYNLGRPFAPFNCNVMGR, for which the amyloid nucleation score is -0.268 ± 0.98.

In turn, FFQTLDWV showed an amyloid nucleation score of -1.13 ± 2.4.

Take KCYLLRKVGCWHQHLDGHFG: the amyloid nucleation score was -0.429 ± 0.66.

For TFLYKKLTFEVVWGCLIASE, the amyloid nucleation score was -0.041 ± 0.84.

RCMMPYGESKSGVLMGRYSY gave an amyloid nucleation score of 0.393 ± 0.31.

Consider RYFVYLSVFDYFINHLDIRW, for which the amyloid nucleation score is -0.79 ± 0.42.

On to NWVRLFQFILTRYSAFAHFR, for which the amyloid nucleation score was -0.264 ± 0.34.

VFGLLPVSSCIVRNRRDLRN: the amyloid nucleation score was -0.371 ± 0.27.

On to SVLNNLAAPDKARLRPCNWV, for which the amyloid nucleation score turned out to be 0.379 ± 0.54.

In the case of IISMLFAFIGQSIIVQVVRC, the amyloid nucleation score amounted to 0.316 ± 0.26.

For WLSPQG, the amyloid nucleation score was 0.453 ± 0.62.

The substance DARSNSVLYQRCSTSRGRSG displayed an amyloid nucleation score of -0.615 ± 0.84.

For the substance SNSLCETWSRWWKRMFTDTF, the amyloid nucleation score amounted to 0.179 ± 0.48.

The substance YNIVPSADWVSWHGRLTGRR yielded an amyloid nucleation score of 1.42 ± 0.61.

ILATMQFLCQMGSERNQARA: the amyloid nucleation score amounted to 0.454 ± 0.26.

QTCAYGLRNTTSTVCLYRWG came in with an amyloid nucleation score of 0.294 ± 0.53.

VFMSLESFYKYNYTHFFFRK gave an amyloid nucleation score of 0.114 ± 0.39.

Substance SSFIWMNC showed an amyloid nucleation score of -0.377 ± 0.42.

TSLPTAVWLKSARQWVEYGL returned an amyloid nucleation score of 1.18 ± 0.54.

As for DTVYDFTMPAWYDYMFWTKW, the amyloid nucleation score result was “inactive”.

As to GTGTAPGINPWLLDSFPAPV, the amyloid nucleation score is 0.378 ± 0.28.

Regarding IAVNSYASVDTYTSLLIRWL, the amyloid nucleation score was found to be 0.993 ± 0.36.

DMFVGKTRMRRGSVMLYFMG gave an amyloid nucleation score of 0.829 ± 0.52.

The substance IVVGCGCPPRINCFV gave an amyloid nucleation score of -0.444 ± 0.7.

The substance RLIHRPVWV returned an amyloid nucleation score of 0.526 ± 0.48.

CLGVSSGRLKCYVNYYCDNW displayed an amyloid nucleation score of 0.106 ± 0.51.

For PGSWVTESLMTYRLCNLSNV, the amyloid nucleation score was found to be 0.455 ± 0.35.

Turning to NYYIRRTCMSTYYVRVLIKS, the amyloid nucleation score is 0.522 ± 0.39.

For the substance IGAHRNRIWIWYCPVVPNAT, the amyloid nucleation score was found to be 3.1 ± 0.2.

Regarding NYYFAKSLLHI, the amyloid nucleation score was 1.27 ± 0.79.

Consider IWMGCYVNVARSK, for which the amyloid nucleation score came out at 1.03 ± 0.22.

On to SGRWLYVLVPICMPYVAELS, for which the amyloid nucleation score result was “inactive”.

Substance AEWVYITMGYAWLKRSNVVE registered an amyloid nucleation score of 0.092 ± 0.33.

The substance SYSYIRLDNFSMFIYFADCS returned an amyloid nucleation score of 3.92 ± 0.066.

With LAMFHSWGVGFATLGVKISE, the amyloid nucleation score amounted to 1.04 ± 0.78.

As for IGLVCCCSSFEFMRWY, the amyloid nucleation score turned out to be 2.49 ± 0.47.

SYYHRFSRIGMRSLGQEQCY: the amyloid nucleation score result was “inactive”.

Take MLVLRMYYTRNS: the amyloid nucleation score amounted to 2.24 ± 0.23.

Substance SHPFTFSCAHILLWMSLRRF returned an amyloid nucleation score of 0.276 ± 0.45.

For the substance SRRSENYFSGANRIGHGGST, the amyloid nucleation score amounted to 0.54 ± 0.4.

Consider SCKVVILLPSVVKACLTVLP, for which the amyloid nucleation score came to 0.474 ± 0.95.

With FVETS, the amyloid nucleation score worked out at 0.198 ± 0.29.

With TDIIFIVRYSVVLVSLCSKC, the amyloid nucleation score was -0.343 ± 0.69.

The substance SLVDGSHNNFRGWVPIVVQG yielded an amyloid nucleation score of -0.079 ± 0.99.

As for RVQKNLINDFSESYPLCHWY, the amyloid nucleation score was -0.553 ± 0.42.

The substance GQLWGEVVIVYCKFAMEWAY yielded an amyloid nucleation score of 0.898 ± 0.27.

For the substance NTLYVGWCMGFV, the amyloid nucleation score is -0.354 ± 0.3.

On to FHTNMTVSYQTKLVLDRYWN, for which the amyloid nucleation score came out at 3.42 ± 0.14.

Consider AADGGYCRCGNDRKCLYAFR, for which the amyloid nucleation score entry was “inactive”.

In turn, VCCYILAYNMFGVLAEWLCG returned an amyloid nucleation score of 3.66 ± 0.069.

Turning to RHKYMWM, the amyloid nucleation score was found to be 1.46 ± 0.81.

With DFLIAVMEQSMAQFKGHSSD, the amyloid nucleation score is 0.071 ± 1.2.

As to QSAAFIIDLLTVFRKMEEVM, the amyloid nucleation score was -0.666 ± 0.66.

Substance SRTTAVSYLGNGFVI had an amyloid nucleation score of -0.573 ± 0.42.

Take LRYFDLVATNHDNMIYDQYL: the amyloid nucleation score is -0.177 ± 0.68.

For RTSDLFAIMKVLDIMMSYTE, the amyloid nucleation score result was “inactive”.

For TAGCICPCKQAVYGICQSRT, the amyloid nucleation score is -0.447 ± 0.71.

On to RFFYWG, for which the amyloid nucleation score turned out to be 0.375 ± 1.2.

FCLNGRYECGSRMECEMVRE: the amyloid nucleation score is -0.741 ± 0.39.

As for APRHDCMSSDLQVVKMDFLL, the amyloid nucleation score is 0.799 ± 0.41.

For YLPYVSLQSVHWIMVGWLN, the amyloid nucleation score was -0.163 ± 0.8.

For SHFVLMLFENSIIVCLEDWE, the amyloid nucleation score stood at 1.91 ± 0.57.

In turn, QLTSACWYAVTGGGSTAGEG gave an amyloid nucleation score of -0.965 ± 1.4.

With CVARIDCEWIKPLSLHCSCT, the amyloid nucleation score is -0.499 ± 1.3.

LFYLFPELMWDMQLCKVDGW: the amyloid nucleation score was 1.4 ± 0.44.

Consider RLYFRSSYDCDETRWKEKYM, for which the amyloid nucleation score amounted to 0.049 ± 0.38.

Regarding RKSEGIDVCGYNISAIYFKC, the amyloid nucleation score was found to be 0.142 ± 0.64.

In turn, KYLPPQVSSGWI registered an amyloid nucleation score of 1.01 ± 0.37.

On to VMNENI, for which the amyloid nucleation score result is “inactive”.

The substance MPRLTDRDKLCDFVNLQFIF showed an amyloid nucleation score of 6.7 ± 0.073.

As to SRVSLFGWSGFKFTSRDSWL, the amyloid nucleation score was determined as 3.51 ± 0.18.

On to FFSYVYGVSACFLVTLLFGP, for which the amyloid nucleation score was -0.229 ± 0.32.

Substance LYDFINYG came in with an amyloid nucleation score of -0.592 ± 1.2.

Substance KASMMPSDSSCLI returned an amyloid nucleation score of 0.911 ± 0.34.

Take IFGCRLLYCS: the amyloid nucleation score was 0.402 ± 1.4.

Consider YLREVYFFMGVWDRK, for which the amyloid nucleation score came out at 0.15 ± 0.44.

With AWDYNKN, the amyloid nucleation score turned out to be 5.69 ± 0.075.

NTQRTLIFSPMFVSRRLNLA yielded an amyloid nucleation score of 2.64 ± 0.16.

The substance MGFVGPENAKDYCSRGV had an amyloid nucleation score of 0.357 ± 0.5.

Regarding FPTFLPQWTGKCFALRCGRW, the amyloid nucleation score result was “inactive”.

Consider DYSMFHTVLKVRVCNYFFVW, for which the amyloid nucleation score amounted to 2.37 ± 0.24.

Substance RLSSSCSSAEDWYRKGHLLK registered an amyloid nucleation score of -0.063 ± 0.4.

As to GISFFGGLQASFLLPLASLL, the amyloid nucleation score was determined as 0.413 ± 1.1.

Take SVAIASLFFLSFNFVDIRLL: the amyloid nucleation score came out at 0.832 ± 0.15.

MERTWFG registered an amyloid nucleation score of 0.276 ± 0.3.

Substance STAAVHCRMRTRFQLRRLRD registered an amyloid nucleation score of -0.086 ± 0.35.

The substance KQRSN gave an amyloid nucleation score of 0.746 ± 0.7.

Consider RGYSSTPRFVNIACYMVQSL, for which the amyloid nucleation score was 2.45 ± 0.26.

The substance PMVRMQYDPYIKTMCVVWMR returned an amyloid nucleation score of -0.195 ± 1.2.

For the substance SIEGRSSIQATMCSMLLNGP, the amyloid nucleation score was -0.197 ± 0.39.

Substance TVIGSSRGAPLIIKSGFIIE displayed an amyloid nucleation score of 4.25 ± 0.056.

Regarding CVKRLLPVYWWGESG, the amyloid nucleation score came out at 0.123 ± 0.91.

KIRVYSRCCFLSG showed an amyloid nucleation score of 5.63 ± 0.071.

RTCYNRDTEMSRGCYTMRVA yielded an amyloid nucleation score of -0.554 ± 0.77.

KLESCN: the amyloid nucleation score was 0.39 ± 1.2.

ARYYLLFAFDNNFCIGVVGS gave an amyloid nucleation score of 4.23 ± 0.099.

CLGNNSFGDLGI showed an amyloid nucleation score of 0.368 ± 0.34.

Substance QNIYFFKCAKHSKVNRSDMS showed an amyloid nucleation score of 1.91 ± 0.55.

Take CWASRSSCSLLYVRVVMRHC: the amyloid nucleation score amounted to 0.371 ± 0.57.

Consider LPLGYRLLAQPCPESSRTPA, for which the amyloid nucleation score stood at 0.001 ± 0.53.

On to IFQPFFAYSGKLVWPFKRDP, for which the amyloid nucleation score was 4.01 ± 0.081.

As to RAVRVMRLSSGLSLGRPSDW, the amyloid nucleation score result is “inactive”.

In turn, DLPLTYMCSN gave an amyloid nucleation score of 0.359 ± 0.7.

As for RLLLYG, the amyloid nucleation score result is “inactive”.

Regarding RYEGKVKHYFKFKIKPMQV, the amyloid nucleation score came to 0.809 ± 0.41.

Substance MTTRIFSLKIA displayed an amyloid nucleation score of 0.066 ± 0.81.

PVLSTYFHAKLQNTWMPGNR: the amyloid nucleation score was -0.941 ± 0.77.

Regarding RWVTLCRWVNVSSDGELGVR, the amyloid nucleation score turned out to be 0.993 ± 0.35.

With PFSGFLCSRVCAMVDKTLFS, the amyloid nucleation score result is “inactive”.

Regarding MGRLRARRSLVLVA, the amyloid nucleation score entry was “inactive”.

On to PYMVSGSWPKFRT, for which the amyloid nucleation score was 0.041 ± 0.58.

For TGSLG, the amyloid nucleation score is -0.214 ± 0.31.

The substance SINVVLAINGTAHCNFSASL showed an amyloid nucleation score of 4.66 ± 0.067.

As for MSCTVHLGLFMESTNHYCMC, the amyloid nucleation score entry is “inactive”.

Turning to VPLGSDSNHNANVTCYFASA, the amyloid nucleation score was -0.078 ± 0.37.

KACWTFNFCKSMVVKEHDPI showed an amyloid nucleation score of 2.56 ± 0.19.

In the case of SGDCVL, the amyloid nucleation score came to 1.43 ± 0.26.

Take LHESVFSWSSKLSLRHGYLR: the amyloid nucleation score was determined as 0.159 ± 0.7.

In turn, TTVANTSAVFCEAVCKGMQK gave an amyloid nucleation score of 0.078 ± 0.99.

In the case of CCVGWCFPACLLFST, the amyloid nucleation score came to 7.42 ± 0.079.

For the substance IAVSFSVVL, the amyloid nucleation score came out at 5.49 ± 0.056.

Substance KDICSYGLNYSLDNVVYNLV displayed an amyloid nucleation score of 0.809 ± 0.39.

Regarding MFNHV, the amyloid nucleation score came to 0.807 ± 1.

FDSRENETTCAMSEDMTYVV came in with an amyloid nucleation score of -0.238 ± 0.22.

In turn, VNQDAGDMKSVRKRAMTRLC gave an amyloid nucleation score of 1.06 ± 0.56.

The substance LRVNIPVTQSSTVIHY showed an amyloid nucleation score of 0.91 ± 0.39.

PATELLYNVCGGY displayed an amyloid nucleation score of 0.044 ± 0.38.

LYEAMPKTLAGIWSTPNMCV displayed an amyloid nucleation score of -0.507 ± 0.93.

Regarding SIYRHDA, the amyloid nucleation score is -0.053 ± 1.1.

Turning to LAIFSMFALFSIFGWSNDFT, the amyloid nucleation score was -0.309 ± 0.43.

VLGSKKWDDLGYLYCRLCTH gave an amyloid nucleation score of 0.64 ± 0.65.

On to LGSVDIRAQCLVNMNMLLSS, for which the amyloid nucleation score was determined as 0.308 ± 0.43.

Turning to RINVYII, the amyloid nucleation score came out at 3.25 ± 0.19.

NVMVTFFGCIRKWRSNWSQE registered an amyloid nucleation score of -0.016 ± 0.48.

MLPLCMSAIRRVKLRSPSEY gave an amyloid nucleation score of 0.151 ± 0.52.

As for TFCCIVSFF, the amyloid nucleation score was determined as 7.199 ± 0.049.

For KYKRSYTLDHVFYMSSPGVR, the amyloid nucleation score is 0.824 ± 0.73.
